According to US7419968B1, “Methods for treating therapy-resistant tumors” (Celmed Oncology (USA), Inc., priority 1999, dated 2008):

Substrate: O=c1[nH]c(=O)n([C@H]2C[C@H](O)[C@@H](COP(=O)(O)O)O2)cc1/C=C/Br
Assay: Enzyme kinetics of rHuTS with dUMP and BVdUMP
Assay type: biochemical, human
Settings: other: rHuTS; 37.0 °C
Procedure: L. Enzyme Preparation. Cloned human thymidylate synthase plasmid pBCHTS was subcloned into E. coli. BL21 (DE3)/pET-28a(+) (Novagen) using the NdeI ñSacI insertion site, in order to add an amino terminal His tag. […] M. Enzyme Assays and Kinetic Measurements. […] Tetrahydrofolate stock solutions were prepared by dissolving tetrahydrofolic acid (Sigma) directly into 0.2 M Tris pH 7.5, 0.5 M-mercaptoethanol; stock solutions were stored at -80° C. […] N5, N10-methylene tetrahydrofolate was kept on ice and used within 2 hours of preparation. […] The catalytic efficiency of the enzyme (Kcat/Km) was calculated from the kinetic constants Km and Vmax.

B1: recombinant human thymidylate synthase (rHuTS) (Homo sapiens) (protein)
chain: MPVAGSELPRRPLPPAAQERDAEPRPPHGELQYLGQIQHILRCGVRKDDRTGTGTLSVFGMQARYSLRDEFPLLTTKRVFWKGVLEELLWFIKGSTNAKELSSKGVKIWDANGSRDFLDSLGFSTREEGDLGPVYGFQWRHFGAEYRDMESDYSGQGVDQLQRVIDTIKTNPDDRRIIMCAWNPRDLPLMALPPCHALCQFYVVNSELSCQLYQRSGDMGLGVPFNIASYALLTYMIAHITGLKPGDFIHTLGDAHIYLNHIEPLKIQLQREPRPFPKLRILRKVEKIDDFKAEDFQIEGYNPHPTIKMEMAV
notes: His tag (N); made in house; host or cells: E. coli BL21 (DE3), pET-28a(+)
- Km: 16 μM μM
